From patent US8975044B2, “Polynucleotides encoding for frizzled-binding agents and uses thereof” (OncoMed Pharmaceuticals, Inc., priority 2008, dated 2015)
“Also recorded” adds a separate entry of the source.

B1: 18R5: human anti-FZD antibody; VH SEQ ID NO:10 (as 18R8), VL SEQ ID NO:14; binds FZD1, 2, 5, 7, 8 (antibody, V domains shown)
VH: EVQLVESGGGLVQPGGSLRLSCAASGFTFSHYTLSWVRQAPGKGLEWVSVISGDGSYTYYADSVKGRFTISSDNSKNTLYLQMNSLRAEDTAVYYCARNFIKYVFANWGQGTLVTVSS
VL: DIELTQPPSVSVAPGQTARISCSGDNIGSFYVHWYQQKPGQAPVLVIYDKSNRPSGIPERFSGSNSGNTATLTISGTQAEDEADYYCQSYANTLSLVFGGGTKLTVLG
modifications: 18R5/18R8 heavy chain variable region (VH); 18R5 light chain variable region (VL)
B2: 18R8: human anti-FZD antibody from phage display; VH SEQ ID NO:10, VL SEQ ID NO:12; binds FZD1, 2, 5, 7, 8 (antibody, V domains shown)
VH: B1 VH
VL: DIELTQPPSVSVAPGQTARISCSGDKLGKKYASWYQQKPGQAPVLVIYEKDNRPSGIPERFSGSNSGNTATLTISGTQAEDEADYYCSSFAGNSLEVFGGGTKLTVLG
modifications: 18R5/18R8 heavy chain variable region (VH); 18R8 light chain variable region (VL)
B3: 44R24: anti-FZD5/8 IgG antibody, VH SEQ ID NO:85, VL SEQ ID NO:86; ATCC deposit no. PTA-10311 (antibody, V domains shown)
VH: EVQLVESGGGLVQPGGSLRLSCAASGFTFSSYYITWVRQAPGKGLEWVSTISYSSSNTYYADSVKGRFTISRDNSKNTLYLQMNSLRAEDTAVYYCARSIVFDYWGQGTLVTVSS
VL: DIELTQPPSVSVAPGQTARISCSGDALGNRYVYWYQQKPGQAPVLVIPSGIPERFSGSNSGNTATLTISGTQAEDEADYYCGSWDTRPYPKYVFGGGTKLTVLG
modifications: 44R24 VH; 44R24 VL
notes: ATCC deposit no; PTA-10311

Experiments:
OMP-Pn4 tumors = assay: Limiting dilution assay of cancer stem cell frequency in treated OMP-Pn4 tumors; assay type: in vivo, NOD/SCID mice; settings: tumors after 41 days treatment; 30-810 cells re-injected, 75 days; L-Calc
Experimental: Control and treated tumors from the OMP-Pn4 xenograft study described above (Example 7) were harvested at the end of 41 days treatment. The tumors were processed and dissociated into single cells. Tumor cells were then incubated with biotinylated mouse antibodies (α-mouse CD45-biotin 1:200 dilution and rat α-mouse H2 Kd-biotin 1:100 dilution, BioLegend, San Diego, Calif.) on ice for 30 min followed by addition of streptavidin-labeled magnetic beads (Invitrogen, Carlsbad, Calif.) to remove mouse cells. The remaining human cells in the suspension were collected, counted and diluted to appropriate cell doses (30, 90, 270 and 810 cells), mixed in the mixture of 1:1 (v/v) FACS buffer and Matrigel and injected subcutaneously in NOD/SCID mice (10 mice per cell dose per treatment group). Each dot in FIG. 40 represents the tumor volume of an individual mouse. The percentage of mice with detectable tumors was determined in all groups injected with anti-FZD antibody treated tumor cells and compared to the percentage of mice with detectable tumors in the controls. For example, the number of mice injected with 810 control-treated tumor cells that have detectable tumors was determined and compared to the number of mice injected with 810 FZD-antibody treated tumor cells that have detectable tumors. […]

FZD1 = assay: Biacore affinity to recombinant Fzd Fc protein; assay type: binding, human; settings: IgG antibody; Fzd Fc immobilized on CM5 Biacore chip
Experimental: (§1) The KDs of 18R8 and 18R5 antibodies were determined using the Biacore 2000 system from Biacore Lifescience (GE Healthcare). Specifically, purified anti-Fzd7 antibodies were serially diluted in 2-fold increments from 100 to 0.78 nM in HBS-P (0.01 M HEPES pH 7.4, 0.15 M NaCl, 0.005% v/v Surfactant P20). Each dilution was tested against recombinant Fzd Fc proteins immobilized onto a CM5 Biacore chip. The association and dissociation rates were measured and KD values determined using the Biaevaluation software program (Table 5, below).

FZD5 = assay: Biacore affinity to recombinant Fzd Fc protein; assay type: binding, human; settings: IgG antibody; Fzd Fc immobilized on CM5 Biacore chip
Experimental: as §1

FZD2 = assay: Biacore affinity to recombinant Fzd Fc protein; assay type: binding, human; settings: IgG antibody; Fzd Fc immobilized on CM5 Biacore chip
Experimental: as §1

Wnt signaling pathway = assay: 8xTCF luciferase reporter assay in STF293 cells with Wnt3A-conditioned medium; assay type: cell-based, human; settings: range of antibody concentrations, 18 hours
Experimental: STF293 cells were cultured in DMEM supplemented with antibiotics and 10% FCS. The STF293 cells are 293 cells in which the following have been stably integrated: (1) an 8×TCF Luc reporter vector containing […] of the TCF binding site linked to a promoter upstream of a firefly luciferase reporter gene to measure canonical Wnt signaling levels (Gazit et al., 1999, Oncogene 18:5959-66) and (2) a Renilla luciferase reporter (Promega; Madison, Wis.) as an internal control for transfection efficiency. The cells were added to cultures plates. The FZD antibodies to be tested (or no antibodies) were added. The cells were then incubated in the presence or absence of Wnt3A-conditioned medium that had been prepared from L cells that stably express Wnt3a (ATCC CRL-2647) or control conditioned media from L cells not overexpressing Wnt3A (ATCC cell line CRL-2648). After overnight incubation, luciferase levels were measured using a dual luciferase assay kit (Promega; Madison, Wis.) with firefly luciferase activity normalized to Renilla luciferase activity.
The ability of the 18R8 and 18R5 antibodies to inhibit Wnt-induced pathway activation was thus determined. STF293 cells were treated with different concentrations of 18R8 or 18R5 IgG antibodies and Wnt3A-conditioned medium was added. The cells were assayed 18 hours later using the dual luciferase assay kit.

Axin2 = Axin2 mRNA level in A549 cells by qPCR; assay type: cell-based, human; settings: 5-0.008 μg/ml, 24 hours, relative to LZ1 control
Experimental: A549 cells are human lung carcinoma cells in which the Axin2 gene is highly expressed, translating endogenous activity of Wnt signaling. Axin2 is a well know Wnt target gene that responds to activation of the pathway by up-regulating its transcription and eventually down-regulating Wnt signaling through a feed-back loop mechanism. This system was used to test the impact of the anti-Fzd Abs on Axin2 mRNA levels by qPCR.
12-well plates were seeded with 30,000 A549 cells per well and grown for 3 days in DMEM+10% FBS. Antibodies were added at varying concentrations (5 1, 0.2, 0.04, 0.008 μg/ml) for 24 hours and total RNA was extracted from the cells. LZ1, a nonbinding antibody, was used as negative control at only the highest concentration.
30,000 A549 cells were seeded into 12-well plates and grown for 3 days in DMEM+10% FBS. Anti-FZD antibody 18R5 or 44R24 were added at varying concentrations (5, 1, 0.2, 0.04, 0.008 ug/ml), and LZ1, a nonbinding antibody, was used as a negative control at only the highest concentration. RNA was made 24 hours post treatment and then treated with Dnase.
Axin2 is known to be a robust target gene in Wnt signaling and its expression level was examined by doing a Taqman relative expression (ΔΔCT) assay using an Applied Biosystems 7900 HT machine. 50 ng of RNA was used per point in triplicate and a GUSB probe was used for endogenous control. […]

FZD5, sequence (Q13467 27-150 limits assumed): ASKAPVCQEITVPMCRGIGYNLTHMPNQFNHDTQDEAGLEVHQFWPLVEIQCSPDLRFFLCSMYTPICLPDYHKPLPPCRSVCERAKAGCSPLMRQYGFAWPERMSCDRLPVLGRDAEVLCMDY

Molecule	cancer stem cell frequency (OMP-Pn4 tumors)	Kd (FZD1) [nM]	Kd (FZD5) [nM]	Kd (FZD2) [nM]	inhibition of Wnt3A-induced TCF signaling (Wnt signaling pathway)	inhibition of basal level of axin2 gene expression (Axin2)
B1	reduced cancer stem cell frequency	4.6	1.9	3.3	Greater inhibition; also recorded: inhibit Wnt signaling	inhibit Axin2 basal levels
B2		15.6	4.2	6.2	inhibit Wnt signaling	
B3						inhibit Axin2 basal levels
